This passage reports AmyQ secretion efficiency results from the supplement of paper PMC9942255.

Values joined by “and” are separate entries in the source; they are usually repeats but may differ in a detail not shown here. Equal entries are not always repeated.

This series concerns Bacillus subtilis DB104 (SP-AmyQ fusion secretion). Description: AmyQ secretion efficiency, weighted average sort bin (1 = best secretion, 10 = worst) (bin number (weighted average, 1-10)); higher = lower secretion efficiency. Summed up: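 Secretion score gives the read-frequency-weighted average bin number, normalised to beads per bin, with low-abundance sequences left out. A B. subtilis DB104 library expressing mature AmyQ fused to designed signal peptides, integrated at amyE, was encapsulated with fluorescein-starch at about 0.3 cells per ~65 nL alginate bead. Beads were grown about 13 h at room temperature, stained with nile red, and the occupied ones were sorted by large-particle flow cytometry into 10 equally populated bins by green/red fluorescence ratio before the amplicons from each bin were Illumina-sequenced.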

Turning to MKRITINSNFSNIITMFIAAAVISLTGTAEAAEK, the AmyQ secretion efficiency was 3.07.

MKRKIVRMTLPLLIVCLAFSSFSASARAASE came in with an AmyQ secretion efficiency of 2.21.

The sequence MKRKKCSICCAAVLLAGGAAQAEAV gave an AmyQ secretion efficiency of 6.17.

Take MKRKKIMIFLTSFMLLAMTGQTALAKDV: the AmyQ secretion efficiency worked out at 3.1.

On to MKRKKKKASLVLFAVVFVFAVKGAPAKAETH, for which the AmyQ secretion efficiency was 2.

As for MKRKKKRLCVMMLLFSAIASFPVSAQAKDQ, the AmyQ secretion efficiency was 3.18.

In the case of MKRKKLCLWFTVFSLFLVLLPGKALGAVD, the AmyQ secretion efficiency came out at 4.65.

The sequence MKRKKLCVMMLLFSAIASFPVSAQAKDQ displayed an AmyQ secretion efficiency of 2.65.

As for MKRKKLLSTLLIGIMLLTFAPSAFAKQD, the AmyQ secretion efficiency was found to be 1.35.

Sequence MKRKKLLVSLRVWMVFLMNWVTPDRKTAAAAVY showed an AmyQ secretion efficiency of 7.43.

MKRKKMSGLLLVAVGFSFTQVMVHAGET: the AmyQ secretion efficiency was 6.25.

Take MKRKKRGSKRTSALSLGLLVSAPTASFAAES: the AmyQ secretion efficiency came to 6.79.

For the sequence MKRKKVLLSALLLLLFAFEPSASGKKL, the AmyQ secretion efficiency stood at 2.93.

Regarding MKRKLKKSLAISALSLGLLVSAPTASFAAES, the AmyQ secretion efficiency is 3.49.

Sequence MKRKLKRKKAISALSLGLLVSAPTASFAAES gave an AmyQ secretion efficiency of 4.1.

For the sequence MKRKLLSSLAISALSLGLLVKRRKKKSFAAES, the AmyQ secretion efficiency worked out at 7.18.

MKRKLLSSLAISALSLGLLVRKRTASFAAES showed an AmyQ secretion efficiency of 6.75.

For MKRKLLSSLAISALSLGLLVSAPTAGFAAES, the AmyQ secretion efficiency was 3.25.

Regarding MKRKLLSSLAISALSLGLLVSAPTALFAAES, the AmyQ secretion efficiency was 2.49.

In turn, MKRKLLSSLAISALSLGLLVSAPTASFAASS came in with an AmyQ secretion efficiency of 1.56.

MKRKLLSSLAISALSLGLLVSAPTASFAATR displayed an AmyQ secretion efficiency of 2.21.

On to MKRKLLSSLAISALSLGLLVSAPTASFADDE, for which the AmyQ secretion efficiency was determined as 5.75.

On to MKRKLLSSLAISALSLGLLVSAPTASFARKR, for which the AmyQ secretion efficiency is 3.11.

MKRKLLSSLAISALSLGLLVSAPTASFGAES came in with an AmyQ secretion efficiency of 3.96.

Sequence MKRKLLSSLAISALSLGLLVSAPTASFVAES displayed an AmyQ secretion efficiency of 6.45.

Sequence MKRKLLSSLAISALSLGLLVSAPTATFAAES came in with an AmyQ secretion efficiency of 3.04.

MKRKLLSSLAISALSLGLLVSAPTAWFAAES yielded an AmyQ secretion efficiency of 9.22.

MKRKLLSSLAISALSLGLLVSGPTTSFAAES gave an AmyQ secretion efficiency of 3.9.

Sequence MKRKLLSSLAISALSLGSAPTASFAAES displayed an AmyQ secretion efficiency of 3.3.

Consider MKRKLLSSLAISASAPTASFAAES, for which the AmyQ secretion efficiency was 7.94.

As to MKRKLRRKRRKSALSLGLLVSAPTASFAAES, the AmyQ secretion efficiency was found to be 7.05.

MKRKQQKSLAISALSLGLLVSAPTASFAAES displayed an AmyQ secretion efficiency of 3.07.

Regarding MKRKQYSGRKLSIIVAYPIQTNASPM, the AmyQ secretion efficiency was 6.49.

In turn, MKRKRFLIGAGVAAVILSGWFIADHQTHSQEM registered an AmyQ secretion efficiency of 5.04.

As for MKRKRKRIMIFLTSFMLLAMTGQTALAKDV, the AmyQ secretion efficiency was 3.59.

The sequence MKRKRLFIFSAILTLSIFAPNETFAQTA came in with an AmyQ secretion efficiency of 1.57.

For MKRKRLLSSLAISALSLGLLVSAPTASFAAES, the AmyQ secretion efficiency is 2.64 and 3.51.

MKRKRLLSTLLIGIMLLTFAPSAFAKQD gave an AmyQ secretion efficiency of 1.87.

Turning to MKRKRRKMACLILFSFTITTFINTETISAFSN, the AmyQ secretion efficiency is 2.31.

On to MKRKRSIMACLILFSFTITTFINTETISAFSN, for which the AmyQ secretion efficiency is 3.86.

On to MKRKSCKLVVSVTLFFSFLTIGPLAHAQNS, for which the AmyQ secretion efficiency worked out at 1.46.

As for MKRKSMSFSLSNLLSSLAISALSLGLLVSAPTASFAAES, the AmyQ secretion efficiency was 2.5.

The sequence MKRKTLSSLAISALSLGLLVSAPTASFAAES yielded an AmyQ secretion efficiency of 2.4.

MKRLALGAALTIAPLSFASAEEN yielded an AmyQ secretion efficiency of 5.98.

For the sequence MKRLCKKRKVFSLFLVLLPGKALGAVD, the AmyQ secretion efficiency turned out to be 7.25.

In the case of MKRLCLWFTVFSLFLVLLPGKALGARR, the AmyQ secretion efficiency was 2.37.

On to MKRLCLWFTVFSLFLVLLPGKALGAVD, for which the AmyQ secretion efficiency stood at 3.84.

MKRLCLWFTVFSLFLVLLPGKALGKKR showed an AmyQ secretion efficiency of 2.36.

Regarding MKRLCLWFTVFSLFLVLLPGKALYAVD, the AmyQ secretion efficiency worked out at 4.11.

Turning to MKRLCLWFTVFSPGKALGAVD, the AmyQ secretion efficiency came out at 7.52.

With MKRLCRKKRKKSLFLVLLPGKALGAVD, the AmyQ secretion efficiency was 7.45.

Sequence MKRLFISSAVLLSILLPSGQAHAQSA came in with an AmyQ secretion efficiency of 2.34.

Sequence MKRLFMKAKLVLFAVVFVFAVKGAPAKAETH returned an AmyQ secretion efficiency of 2.67.

The sequence MKRLFMKARRKKKAVVFVFAVKGAPAKAETH returned an AmyQ secretion efficiency of 8.85.

MKRLFMKARRRLFAVVFVFAVKGAPAKAETH returned an AmyQ secretion efficiency of 6.05.

As for MKRLFMKASLVLFAVVFVFAVKGADAKAETH, the AmyQ secretion efficiency came to 2.52.

On to MKRLFMKASLVLFAVVFVFAVKGADEEDEEEAKAETH, for which the AmyQ secretion efficiency came out at 7.15.

Consider MKRLFMKASLVLFAVVFVFAVKGAGAKAETH, for which the AmyQ secretion efficiency was 1.83.

MKRLFMKASLVLFAVVFVFAVKGAIAKAETH showed an AmyQ secretion efficiency of 2.52.

MKRLFMKASLVLFAVVFVFAVKGAKRAKAETH returned an AmyQ secretion efficiency of 2.04.

Sequence MKRLFMKASLVLFAVVFVFAVKGAPAKAADD gave an AmyQ secretion efficiency of 3.6.

The sequence MKRLFMKASLVLFAVVFVFAVKGAPAKAAKR showed an AmyQ secretion efficiency of 3.29.

Consider MKRLFMKASLVLFAVVFVFAVKGAPAKAATH, for which the AmyQ secretion efficiency was 1.71.

Take MKRLFMKASLVLFAVVFVFAVKGAPAKADEE: the AmyQ secretion efficiency was found to be 2.81.

MKRLFMKASLVLFAVVFVFAVKGAPAKGETH returned an AmyQ secretion efficiency of 2.19.

As for MKRLFMKASLVLFAVVFVFAVKGAPIKAETH, the AmyQ secretion efficiency turned out to be 2.24.

Sequence MKRLFMKASLVLFAVVFVFAVKGAPKAKAETH showed an AmyQ secretion efficiency of 1.9.

As for MKRLFMKASLVLFAVVFVFAVKGAPLKAETH, the AmyQ secretion efficiency was 2.67.

MKRLFMKASLVLFAVVFVFAVKGAPMKAETH had an AmyQ secretion efficiency of 1.95.

MKRLFMKASLVLFAVVFVFAVKGAPTKAETH had an AmyQ secretion efficiency of 2.27.

On to MKRLFMKASLVLFAVVFVFKPAKAETH, for which the AmyQ secretion efficiency came out at 3.15.

In the case of MKRLFMKGSLVLFAVVFVFAVKGAPAKAETH, the AmyQ secretion efficiency stood at 3.72.

Sequence MKRLFMKLLTTTASLVLFAVVFVFAVKGAPAKAETH displayed an AmyQ secretion efficiency of 2.87.

Turning to MKRLFMKSMASLVLFAVVFVFAVKGAPAKAETH, the AmyQ secretion efficiency is 2.

MKRLFMKSSKRLFAVVFVFAVKGAPAKAETH registered an AmyQ secretion efficiency of 7.81.

For the sequence MKRLFMKYKRYQKQVVFVFAVKGAPAKAETH, the AmyQ secretion efficiency was found to be 7.88.

The sequence MKRLKKTLLIGIMLLTFAPSAFAKQD registered an AmyQ secretion efficiency of 1.92.

MKRLKRRKLIGIMLLTFAPSAFAKQD returned an AmyQ secretion efficiency of 4.68.

MKRLKVSLRVWMVFLMNWVTPDRKTAAAAVY gave an AmyQ secretion efficiency of 6.85.

As for MKRLLILLLIIIMLLGGTTFAPSAFAKQD, the AmyQ secretion efficiency turned out to be 2.

MKRLLLGILCSAAVFLIGAPSRALGAEV came in with an AmyQ secretion efficiency of 2.5.
